These results are taken from article PMC8163506, “A novel ATP dependent dimethylsulfoniopropionate lyase in bacteria that releases dimethyl sulfide and acryloyl-CoA” (eLife, 2021).

Holding throughout (assay): DMS production by GC, nonlinear fit of initial rates
What all share (type): biochemical, Psychrobacter sp.

Substrate in data set [1]: CC(C)(COP(=O)(O)OP(=O)(O)OC[C@H]1O[C@@H](n2cnc3c(N)ncnc32)[C@H](O)[C@@H]1OP(=O)(O)O)[C@@H](O)C(=O)NCCC(=O)NCCS
The note with it: co-substrates DMSP and ATP, pH 8.5, 40 °C.

Substrate in data set [2]: C[S+](C)CCC(=O)[O-]
The following applies: co-substrates ATP and CoA, pH 8.5, 40 °C.

Substrate in data set [3]: Nc1ncnc2c1ncn2[C@@H]1O[C@H](COP(=O)(O)OP(=O)(O)OP(=O)(O)O)[C@@H](O)[C@H]1O
The note with it: co-substrates DMSP and CoA, pH 8.5, 40 °C.

B1: DddX (Psychrobacter sp.) (protein)
chain: LTGQIIEYTIKIQTIYTGNFKHKNGFLKMIERGIAMKKENLKILAKKAQTIAIVGANYRFATRVLLENLDKMDFTGTIYLVNPRYENIDGVRCYQSLLEIEDTIDVVVGLVNPQLMIQVASNASKINAKVLVIPGGGYGESGVEGQNIQNAILERAADSGMRIVGPNCMGYLNMHAQFTPYIGTLHRPLRPIKKGPVSIISQSGSVNDAFIASKLGISKIYSTGNEADVQMHDYLNLLAEDPETSVIILYIEAIRNHLSFLRALDLCSKNKKPVIAIKVGRTIKSAAVANAHSGALAGDYEIEKLFLEGHGVLFVEDIDQAVAVALLLSQPYLPTVNTVAALTVSGGQAGILLDLAEDYGVDFPDFSAVTNYEIASKLPELGGLSNPLDIWGKSSKDFSEVSNICLSSIVKDADIGIITVAIDAPIGQGDHEFDFTSIPAKDLASLRGNSDKPFLYFSHIQTEFDPRVESILDEAGIAVIQGSRNALVACRALFKYKEFLEKNNHTPIYSVEDLSIQKGLKLLHDNEGRKLLDESGFVSPREQVVTSLQEGVDYAESIGYPVVLKAQGLAHKTDVGGVALNIKSAAKLKKAWGKMEHLNSPYYLIQEMVTDGFETILAYRTDMNYGPVVIFGLGGIYTELFNEVVLAVPPITHKKAEQMVKSIPMLWKSIEGYRGNPALDLEALTASIVQMGETAMEKYEEIVEFEINPLSVRVKGVVALDVLASVKTTAAKEADAEEADVKKCSELV
notes: full length (2247 bp gene), pET-22b, C-terminal His tag, E. coli BL21(DE3); dimer in solution
As to B1, the Km (in general, the concentration of substrate that gives half-maximal velocity) in data set [1] came to 400 µM; in data set [2], 400 µM; in data set [3], 2500 µM. The kcat (in general, the number of substrate molecules converted per active site and unit of time at saturation) in data set [2] stood at 0.7 s⁻¹.
